“And” between values parts separate entries of the source, which are not always exact repeats. Identical values can stand only once.
Target: the molecule itself
Experiment: SEC

B1: mouse Serum amyloid A 1.1 (SAA1.1), lipid-free (natural protein)
chain: GFFSFIGEAFQGAGDMWRAYTDMKEAGWKDGDKYFHARGNYDAAQRGPGGVWAAEKISDARESFQEFFGRGHEDTMADQEANRHGRSGKDPNYYRPPGLPAKY
For B1, the “stoichiometry N” value was 12 and 4.

Source: PMC4119840 (Biochimie, 2014)
